# Measurements published in IntAct's records for PubMed 21703451.
# B1: Transient receptor potential protein (Drosophila melanogaster (Fruit fly)), P19334 (parent)
# chain: MGSNTESDAEKALGSRLDYDLMMAEEYILSDVEKNFILSCERGDLPGVKKILEEYQGTDKFNINCTDPMNRSALISAIENENFDLMVILLEHNIEVGDALLHAISEEYVEAVEELLQWEETNHKEGQPYSWEAVDRSKSTFTVDITPLILAAHRNNYEILKILLDRGATLPMPHDVKCGCDECVTSQMTDSLRHSQSRINAYRALSASSLIALSSRDPVLTAFQLSWELKRLQAMESEFRAEYTEMRQMVQDFGTSLLDHARTSMELEVMLNFNHEPSHDIWCLGQRQTLERLKLAIRYKQKTFVAHPNVQQLLAAIWYDGLPGFRRKQASQQLMDVVKLGCSFPIYSLKYILAPDSEGAKFMRKPFVKFITHSCSYMFFLMLLGAASLRVVQITFELLAFPWMLTMLEDWRKHERGSLPGPIELAIITYIMALIFEELKSLYSDGLFEYIMDLWNIVDYISNMFYVTWILCRATAWVIVHRDLWFRGIDPYFPREHWHPFDPMLLSEGAFAAGMVFSYLKLVHIFSINPHLGPLQVSLGRMIIDIIKFFFIYTLVLFAFGCGLNQLLWYYAELEKNKCYHLHPDVADFDDQEKACTIWRRFSNLFETSQSLFWASFGLVDLVSFDLAGIKSFTRFWALLMFGSYSVINIIVLLNMLIAMMSNSYQIISERADTEWKFARSQLWMSYFEDGGTIPPPFNLCPNMKMLRKTLGRKRPSRTKSFMRKSMERAQTLHDKVMKLLVRRYITAEQRRRDDYGITEDDIIEVRQDISSLRFELLEIFTNNNWDVPDIEKKSQGVARTTKGKVMERRILKDFQIGFVENLKQEMSESESGRDIFSSLAKVIGRKKTQKGDKDWNAIARKNTFASDPIGSKRSSMQRHSQRSLRRKIIEQANEGLQMNQTQLIEFNPNLGDVTRATRVAYVKFMRKKMAADEVSLADDEGAPNGEGEKKPLDASGSKKSITSGGTGGGASMLAAAALRASVKNVDEKSGADGKPGTMGKPTDDKKAGDDKDKQQPPKDSKPSAGGPKPGDQKPTPGAGAPKPQAAGTISKPGESQKKDAPAPPTKPGDTKPAAPKPGESAKPEAAAKKEESSKTEASKPAATNGAAKSAAPSAPSDAKPDSKLKPGAAGAPEATKATNGASKPDEKKSGPEEPKKAAGDSKPGDDAKDKDKKPGDDKDKKPGDDKDKKPADNNDKKPADDKDKKPGDDKDKKPGDDKDKKPSDDKDKKPADDKDKKPAAAPLKPAIKVGQSSAAAGGERGKSTVTGRMISGWL
# Variants of: B1
# Details: with inad_drome inaD
row,Variant,effect of a mutation on the interaction
1,V1266A,decreasing interaction
2,V1266A;W1274A,disrupting interaction
